According to publication PMC9352680, “A comprehensive thermodynamic model for RNA binding by the Saccharomyces cerevisiae Pumilio protein PUF4”:

Target: T1, PUF4 RNA-binding domain (Saccharomyces cerevisiae, UniProt P25339 537-888)
T1 sequence: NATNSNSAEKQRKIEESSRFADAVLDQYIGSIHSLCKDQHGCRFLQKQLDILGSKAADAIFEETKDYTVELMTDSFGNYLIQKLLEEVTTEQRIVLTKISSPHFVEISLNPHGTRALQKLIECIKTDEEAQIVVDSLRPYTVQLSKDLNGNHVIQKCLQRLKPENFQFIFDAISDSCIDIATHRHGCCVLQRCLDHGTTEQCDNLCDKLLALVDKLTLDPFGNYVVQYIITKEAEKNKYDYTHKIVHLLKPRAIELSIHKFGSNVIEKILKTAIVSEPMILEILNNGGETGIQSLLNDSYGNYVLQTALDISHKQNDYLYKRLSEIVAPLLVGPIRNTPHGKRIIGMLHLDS
Assay: Mg; RNA-MaP; 20 mM Na-HEPES pH 7.4, 30 mM KOAc, 0.75 mM MgCl2, 0.1% Tween-20, 5% glycerol, 0.1 mg/mL BSA, 2 mM DTT; 25 C; 0.0125-409.6 nM protein
Conditions: tags: N-His6-TEV cleaved; C-SNAP kept, Cy3B-labelled; label: tethered on chip by stalled RNA polymerase

## UCUCUUUGUAAAUUCUCUCUU (ssRNA) [Ib_S1_P4E.1_K4.1_C4.1_H4.1_A4.1_[T5A]_F4.1_[A9C]_T4.1]
  Kd: 26.3 nM

## UCUCUUUGUAAAUUUUCUCUU (ssRNA) [Ic_S1_P4E.1_K4.1_C4.1_H4.1_A4.1_[T5A]_F4.1_[A9T]_T4.1]
  Kd: 18.3 nM

B1: Ic_S4_P5E.1_K5.1_C5.1_H5.1_A5.1_[T6C]_[A7T]_F5.1_[T9A]_[A10G]_T5.1 (ssRNA)
RNA: UUUGACAACUGAUCGUUCUUUCUUGUAUCUUAGUUCUUUCUCGAUCAGUUGUCUUU
  Kd: 3.48 nM

B2: Ic_S4_P5E.1_K5.1_C5.1_H5.1_A5.1_[T5C]_[T6C]_[A7T]_F5.1_[A10T]_T5.1 (ssRNA)
RNA: UUUGACAACUGAUCGUUCUUUCUUGUACCUUUUUUCUUUCUCGAUCAGUUGUCUUU
  Kd: 12.3 nM

B3: Ic_S4_P5E.1_K5.1_C5.1_H5.1_A5.1_[T5C]_[A7C]_F5.1_[T8A]_[T9G]_[A10C]_T5.1 (ssRNA)
RNA: UUUGACAACUGAUCGUUCUUUCUUGUACUCAGCUUCUUUCUCGAUCAGUUGUCUUU
  Kd: 730 nM

B4: Ic_S4_P5E.1_K5.1_C5.1_H5.1_A5.1_[T5A]_[A7T]_F5.1_[T8A]_[T9G]_[A10C]_T5.1 (ssRNA)
RNA: UUUGACAACUGAUCGUUCUUUCUUGUAAUUAGCUUCUUUCUCGAUCAGUUGUCUUU
  Kd: 338 nM

B5: Ic_S4_P5E.1_K5.1_C5.1_H5.1_A5.1_[T5A]_[A7G]_F5.1_[T8C]_[T9A]_[A10T]_T5.1 (ssRNA)
RNA: UUUGACAACUGAUCGUUCUUUCUUGUAAUGCAUUUCUUUCUCGAUCAGUUGUCUUU
  Kd: 844 nM

B6: Ic_S4_P5E.1_K5.1_C5.1_H5.1_A5.1_[A7T]_F5.1_[T8C]_[T9C]_T5.1 (ssRNA)
RNA: UUUGACAACUGAUCGUUCUUUCUUGUAUUUCCAUUCUUUCUCGAUCAGUUGUCUUU
  Kd: 120 nM

B7: Ic_S4_P5E.1_K5.1_C5.1_H5.1_A5.1_[T5C]_F5.1_[T8C]_[T9A]_[A10C]_T5.1 (ssRNA)
RNA: UUUGACAACUGAUCGUUCUUUCUUGUACUACACUUCUUUCUCGAUCAGUUGUCUUU
  Kd: 540 nM

B8: Ic_S4_P5E.1_K5.1_C5.1_H5.1_A5.1_[T5A]_F5.1_[T9C]_T5.1 (ssRNA)
RNA: UUUGACAACUGAUCGUUCUUUCUUGUAAUAUCAUUCUUUCUCGAUCAGUUGUCUUU
  Kd: 113 nM

B9: Ic_S4_P5E.1_K5.1_C5.1_H5.1_A5.1_[T5G]_[A7T]_F5.1_[T9C]_[A10C]_T5.1 (ssRNA)
RNA: UUUGACAACUGAUCGUUCUUUCUUGUAGUUUCCUUCUUUCUCGAUCAGUUGUCUUU
  Kd: 125 nM

B10: Ic_S4_P5E.1_K5.1_C5.1_H5.1_A5.1_[T5A]_[T6A]_[A7T]_F5.1_[T9C]_[A10T]_T5.1 (ssRNA)
RNA: UUUGACAACUGAUCGUUCUUUCUUGUAAAUUCUUUCUUUCUCGAUCAGUUGUCUUU
  Kd: 28.2 nM

B11: Ic_S4_P5E.1_K5.1_C5.1_H5.1_A5.1_[T5C]_[T6G]_[A7G]_F5.1_[T9A]_T5.1 (ssRNA)
RNA: UUUGACAACUGAUCGUUCUUUCUUGUACGGUAAUUCUUUCUCGAUCAGUUGUCUUU
  Kd: 38.4 nM

B12: Ic_S4_P5E.1_K5.1_C5.1_H5.1_A5.1_[A7G]_F5.1_[T8G]_T5.1 (ssRNA)
RNA: UUUGACAACUGAUCGUUCUUUCUUGUAUUGGUAUUCUUUCUCGAUCAGUUGUCUUU
  Kd: 58.8 nM

B13: Ic_S4_P5E.1_K5.1_C5.1_H5.1_A5.1_[T6C]_F5.1_[T8C]_[T9A]_[A10T]_T5.1 (ssRNA)
RNA: UUUGACAACUGAUCGUUCUUUCUUGUAUCACAUUUCUUUCUCGAUCAGUUGUCUUU
  Kd: 183 nM

B14: Ic_S4_P5E.1_K5.1_C5.1_H5.1_A5.1_[T5C]_[T6G]_[A7T]_F5.1_[T8C]_[T9G]_[A10T]_T5.1 (ssRNA)
RNA: UUUGACAACUGAUCGUUCUUUCUUGUACGUCGUUUCUUUCUCGAUCAGUUGUCUUU
  Kd: 167 nM

B15: Ic_S4_P5E.1_K5.1_C5.1_H5.1_A5.1_[T5A]_[T6A]_[A7C]_F5.1_[T8C]_[A10C]_T5.1 (ssRNA)
RNA: UUUGACAACUGAUCGUUCUUUCUUGUAAACCUCUUCUUUCUCGAUCAGUUGUCUUU
  Kd: 233 nM

B16: Ic_S4_P5E.1_K5.1_C5.1_H5.1_A5.1_[T6A]_[A7C]_F5.1_[T8C]_[T9G]_[A10T]_T5.1 (ssRNA)
RNA: UUUGACAACUGAUCGUUCUUUCUUGUAUACCGUUUCUUUCUCGAUCAGUUGUCUUU
  Kd: 37.8 nM

B17: Ic_S4_P5E.1_K5.1_C5.1_H5.1_A5.1_[T5G]_F5.1_[T8A]_[T9C]_[A10C]_T5.1 (ssRNA)
RNA: UUUGACAACUGAUCGUUCUUUCUUGUAGUAACCUUCUUUCUCGAUCAGUUGUCUUU
  Kd: 1160 nM

B18: Ic_S4_P5E.1_K5.1_C5.1_H5.1_A5.1_[A7C]_F5.1_[T8G]_[A10G]_T5.1 (ssRNA)
RNA: UUUGACAACUGAUCGUUCUUUCUUGUAUUCGUGUUCUUUCUCGAUCAGUUGUCUUU
  Kd: 66.3 nM

B19: Ic_S4_P5E.1_K5.1_C5.1_H5.1_A5.1_[T5C]_[T6G]_[A7T]_F5.1_[T8C]_[T9C]_[A10C]_T5.1 (ssRNA)
RNA: UUUGACAACUGAUCGUUCUUUCUUGUACGUCCCUUCUUUCUCGAUCAGUUGUCUUU
  Kd: 114 nM

B20: Ic_S4_P5E.1_K5.1_C5.1_H5.1_A5.1_[T5A]_[T6A]_[A7T]_F5.1_[T8C]_[T9C]_[A10G]_T5.1 (ssRNA)
RNA: UUUGACAACUGAUCGUUCUUUCUUGUAAAUCCGUUCUUUCUCGAUCAGUUGUCUUU
  Kd: 254 nM

B21: Ic_S4_P5E.1_K5.1_C5.1_H5.1_A5.1_[T5C]_[T6C]_[A7G]_F5.1_[T8A]_[T9C]_[A10C]_T5.1 (ssRNA)
RNA: UUUGACAACUGAUCGUUCUUUCUUGUACCGACCUUCUUUCUCGAUCAGUUGUCUUU
  Kd: 1020 nM

B22: Ic_S4_P5E.1_K5.1_C5.1_H5.1_A5.1_[T5G]_[T6C]_[A7G]_F5.1_[T8C]_[T9G]_[A10T]_T5.1 (ssRNA)
RNA: UUUGACAACUGAUCGUUCUUUCUUGUAGCGCGUUUCUUUCUCGAUCAGUUGUCUUU
  Kd: 1620 nM
